The labels stand for the following.
B1: Fab clone 19 (Fab, V domains shown)
VH: QVKLLEESGGGLVRLAGSLRLSCAASGTTLSGYTMHWVRQAPGKGLEWVSSITGGSNFINYSDSVKGRFTISRDNAKNSLYLQMNSLTAEDTAVYYCATAPIAPPYFDHWGQGTLVTVSS
VL: ELTQSPSSLSASVGDRVTITCRATQSVSNFLNWYQQKPGEAPTLLIYDASTSQSGVPSRFSGSGSGMDFSLTISSLQPEDLAMYYCQASINTPLFGGGTRIDMR
notes: Human IgG1 kappa Fab made as soluble Fab in E. coli; Variable domains are identical to clone 13; also called Fab 19; RSV Fab 19
B2: Fab clone 13 (Fab, V domains shown)
VH: B1 VH
VL: B1 VL
notes: Human IgG1 kappa Fab made as soluble Fab in E. coli; Variable domains are identical to clone 19; also called Fab 13; rsv 13H/13L
B3: Fab clone 11 (Fab, V domains shown)
VH: VKLLEQSGGGLVQPGGSLRLSCAVSGVTFSAYAMSWVRQAPGKGLEWVSGISGSGDSTDYADSVKGRLTISRDNSKNTLYLQMNSLRAEDTAIYYCASHLPDYWNLDYTRFFYYMDVWGKGTTVTVSS
VL: ELTQSPGTLSLSPGERATLSCRATQSISSNYLAWYQQRPGQAPRLLIYGASNRATDIPDRFSGSGSGTDFTLTISRLEPEDFAMYYCQQYDISPYTFGQGTKLEIK
notes: Human IgG1 kappa Fab from a pComb3 phage library, made as soluble Fab in E. coli; also called Fab 11; rsv 11H/11L

Chain of RSV (subgroup A) F glycoprotein (P03420 26-574): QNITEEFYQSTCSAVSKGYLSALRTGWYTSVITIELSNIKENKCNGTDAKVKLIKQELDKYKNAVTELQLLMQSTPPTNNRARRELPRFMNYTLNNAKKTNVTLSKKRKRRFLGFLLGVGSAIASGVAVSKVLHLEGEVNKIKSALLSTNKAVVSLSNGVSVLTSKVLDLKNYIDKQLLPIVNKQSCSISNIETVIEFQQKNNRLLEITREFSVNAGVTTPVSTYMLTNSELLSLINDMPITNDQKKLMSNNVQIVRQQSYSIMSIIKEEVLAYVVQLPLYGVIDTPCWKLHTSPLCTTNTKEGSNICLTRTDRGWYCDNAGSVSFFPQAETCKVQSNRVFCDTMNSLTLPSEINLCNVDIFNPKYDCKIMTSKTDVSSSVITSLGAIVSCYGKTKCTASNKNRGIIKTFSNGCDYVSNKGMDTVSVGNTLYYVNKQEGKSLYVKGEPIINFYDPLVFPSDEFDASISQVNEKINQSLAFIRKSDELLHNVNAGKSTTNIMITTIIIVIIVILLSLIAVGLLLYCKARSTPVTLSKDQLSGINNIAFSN
T1 sequence (P03420 26-489, tags or fused parts left off): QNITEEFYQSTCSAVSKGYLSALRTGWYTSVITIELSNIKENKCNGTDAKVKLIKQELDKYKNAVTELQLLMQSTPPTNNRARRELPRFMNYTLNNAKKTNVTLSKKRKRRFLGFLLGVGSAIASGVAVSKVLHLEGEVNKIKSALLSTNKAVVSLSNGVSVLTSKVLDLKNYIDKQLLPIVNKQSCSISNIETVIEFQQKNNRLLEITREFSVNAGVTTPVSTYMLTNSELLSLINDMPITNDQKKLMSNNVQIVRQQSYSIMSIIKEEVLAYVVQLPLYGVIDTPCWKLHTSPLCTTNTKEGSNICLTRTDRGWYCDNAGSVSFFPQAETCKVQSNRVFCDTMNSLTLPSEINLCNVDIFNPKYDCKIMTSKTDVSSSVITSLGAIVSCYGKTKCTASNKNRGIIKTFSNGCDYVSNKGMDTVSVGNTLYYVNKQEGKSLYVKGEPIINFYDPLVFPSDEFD

One assay has as its target RSV (subgroup A) F glycoprotein (respiratory syncytial virus subgroup A …, UniProt P03420 26-574). The assay is described as follows: cell-based or functional assay.
On to B1, for which the “Concentration of Fab Needed for 60% Plaque Reduction (µg/ml), RSV; purified from lysate” value is 0.4 µg/mL and the “Maximum Neutralization of RSV (Subgroup A); purified from lysate” value (from here on “Maximum Neutralization of RSV”) was determined as 100%.
As to B2, the “Concentration of Fab Needed for 60% Plaque Reduction (µg/ml), RSV; purified from lysate” value amounted to 0.2 µg/mL and the “Maximum Neutralization of RSV” value amounted to 98%.
Turning to B3, the “Concentration of Fab Needed for 60% Plaque Reduction (µg/ml), RSV; purified from lysate” value worked out at 1.8 µg/mL and the “Maximum Neutralization of RSV” value is 88%.

A further assay has as its target T1, baculovirus-expressed FG fusion glycoprotein (respiratory syncytial virus, UniProt P03420 26-489; P03423 97-279).
T1 construct: also called RSV FG glycoprotein; recombinant FG glycoprotein
The assay is described as follows: inhibition ELISA, free FG against coated FG.
On to B1, for which the Ka was around 1e+08 M⁻¹.
Still for that read-out and setting: to B2 belongs around 1e+08 M⁻¹.
B3 displayed a Ka of around 1e+08 M⁻¹.

Values taken from patent publication US7364737 (Scripps Research, dated 2008).
